This note sets out measurements from the supplement of paper PMC9170038.

The test system of this data set is K4 kissing-loop RNA reporter. Nature of the data set: apparent KD of K4 kissing-loop reporter; higher = weaker reporter binding. The note with it: Eterna round: R107. As for the experimental part:
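RNA-MaP round R107: designed RNA switches with theophylline, tryptophan, arginine or FMN aptamers are transcribed on-chip within common flanks. They are titrated with a labelled K4 kissing-loop RNA reporter in RNA-MaP buffer (100 mM Tris pH 7.5, 80 mM KCl, 4 mM MgCl2), without ligand or with the indicated ligand. Median apparent KD per design.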

The mark [1] stands for this setting: input ligand: theophylline 20 uM.
Setting [2] is: input ligand: tryptophan 2.4 mM.
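Further: bound reporter read as fluorescence of individual clusters on recovered sequencing chips by microscopy, with normalized cluster intensities fitted with a binding model.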

Take “GCUAUGGUUGGAAGGAGCGUUUAAUUACUAAUAAGAGUGAUGUUCGAUAGUAGGUAAUUGUAGCAGGUAGGUCGCCAACUAUAGC [KL-Arg B25]”: the “apparent KD of K4 kissing-loop reporter” value turned out to be 215 nM (input ligand: FMN 200 uM); 232 nM (input ligand: arginine 13.2 mM); 186 nM (input ligand: none); 222 nM under setting [1]; 224 nM under setting [2].
For the sequence “GCUGAUCGUUUUCCACGAUGCGGCUAAUAAAAGGAUAUUGGUAUAUCAAGAAGGUUUGUUCUGUGUAGUGAUGUUGCACCGUGUU [theeternabot_sameState_KL_FMN_A_28]”, the “apparent KD of K4 kissing-loop reporter” value was determined as 77.5 nM (input ligand: FMN 200 uM); 101 nM (input ligand: arginine 13.2 mM); 80.5 nM (input ligand: none); 111 nM under setting [1]; 72.5 nM under setting [2].
On the same counts, the results for “GCUUUCCGUGCGGCCGCCACUGAUCUAAGUGAUGUUUAGAUCGCAUUCGAACCGGUUACCCAGAGCAGGACCGGGCACCAGCGCU [theeternabot_exclusion_KL_Trp_B_35]” are 97 nM, 84.9 nM, 89.8 nM, 90.1 nM and 91.9 nM.
For “GGACGAGUGAUGUUCGUUAUUAUGCAUUCAGAGGAUAUAGGAUUAGCUAGAAGGCUGAAUCAAUCUUCGAGUGAUGUUCGAGGAU [Same State FMN A GF 10]”, the “apparent KD of K4 kissing-loop reporter” value (input ligand: FMN 200 uM) was found to be 146 nM; the “apparent KD of K4 kissing-loop reporter” value (input ligand: arginine 13.2 mM) was 146 nM; the “apparent KD of K4 kissing-loop reporter” value (input ligand: none) was 154 nM; the “apparent KD of K4 kissing-loop reporter” value under setting [1] came to 151 nM; the “apparent KD of K4 kissing-loop reporter” value under setting [2] is 142 nM.
Turning to “GGACGCCGGUCGGCCGCCACUCACAGCAGUGAUGUUGCUGAGCUUGUAGCGGAGUGAUGUUCCGAGAGGACCGGGACUGCAGUUU [Same State Tryptophan B GF 10]”, the “apparent KD of K4 kissing-loop reporter” value (input ligand: FMN 200 uM) was found to be 522 nM; the “apparent KD of K4 kissing-loop reporter” value (input ligand: arginine 13.2 mM) turned out to be 506 nM; the “apparent KD of K4 kissing-loop reporter” value (input ligand: none) was found to be 739 nM; the “apparent KD of K4 kissing-loop reporter” value under setting [1] was 550 nM; the “apparent KD of K4 kissing-loop reporter” value under setting [2] worked out at 532 nM.
In the case of “GGAGCAGGUGAAGGAUAUCCCGGGCCAGAGUGAUGUUCUGGAUCCCUUGCCGUGUCUAAACGGGUGGGAGAAGGUCACUGAUAAG [Erinxe]”, the “apparent KD of K4 kissing-loop reporter” value is 137 nM (input ligand: FMN 200 uM); 187 nM (input ligand: arginine 13.2 mM); 213 nM (input ligand: none); 178 nM under setting [1]; 231 nM under setting [2].
With “GGAGGGAUCUCGGCCGCCACUCAUAAGAAAUGGGCCUCAGAAAUAUAGUGAUGUUAUAUAAAGAAGAGGACCGGGAGAAAGAAGG [ExTryptoB.D]”, the “apparent KD of K4 kissing-loop reporter” value is, setting by setting: (input ligand: FMN 200 uM) 197 nM; (input ligand: arginine 13.2 mM) 128 nM; (input ligand: none) 129 nM; under setting [1], 203 nM; under setting [2], 131 nM.
“GGAGUUACCUGGGAUACCAGUCGGAGUCCGAGAGCUCGGAGUGAUGUUCUGGGAUGUUUCGGCCCUUGGCAGCUCUGGGACUCCC [#2 Exclusion - Theophylline B Attempt #10 (HarryS)]”: the “apparent KD of K4 kissing-loop reporter” value runs as follows: (input ligand: FMN 200 uM) 220 nM; (input ligand: arginine 13.2 mM) 181 nM; (input ligand: none) 241 nM; under setting [1], 249 nM; under setting [2], 198 nM.
On to “GGAUAGGACAGAGGAUAUCCAGUGAUGUUGGAGAAUUCUCCUUAAACAUGUCACAAAAGUGGCAUGGGAGAAGGCUGUCCUAUCG [Mod of Eli's FmnBX 29 v1]”, for which the “apparent KD of K4 kissing-loop reporter” value (input ligand: FMN 200 uM) was found to be 217 nM; the “apparent KD of K4 kissing-loop reporter” value (input ligand: arginine 13.2 mM) worked out at 123 nM; the “apparent KD of K4 kissing-loop reporter” value (input ligand: none) was determined as 122 nM; the “apparent KD of K4 kissing-loop reporter” value under setting [1] was determined as 138 nM; the “apparent KD of K4 kissing-loop reporter” value under setting [2] was determined as 105 nM.
Take “GGAUAGGACAGAGGAUAUCUCUGAGGCAAGAAAACUUGUCUCUAAAGGGAUGACUCAGUGAUGUUGAGAGAAGGCUGUCCUAUCG [FmnBX 11 - #SwitchBubble #StaticStem]”: the “apparent KD of K4 kissing-loop reporter” value by setting is: (input ligand: FMN 200 uM) 295 nM; (input ligand: arginine 13.2 mM) 141 nM; (input ligand: none) 154 nM; under setting [1], 140 nM; under setting [2], 149 nM.
Turning to “GGAUAGGACAGAGGAUAUGGAGAGUCUACAAAGUAGGCUCAUAAUCCUUGAAUGGAAGUGAUGUUUCUAGAAGGCUGUCCUAUCG [FmnBX 18 - #SwitchBubble #StaticStem #Palindromic]”, the “apparent KD of K4 kissing-loop reporter” value is, setting by setting: (input ligand: FMN 200 uM) 758 nM; (input ligand: arginine 13.2 mM) 135 nM; (input ligand: none) 143 nM; under setting [1], 148 nM; under setting [2], 136 nM.
On to “GGAUAGGACAGAGGAUAUGGAGCUAGGCAAGAAUAACUUGUCUAGCAAUCCAUGAGGAGUGAUGUUCCAGAAGGCUGUCCUAUCG [FmnBX 2 - #SwitchBubble #StraticStem #DoubleMagnetSystem]”, for which the “apparent KD of K4 kissing-loop reporter” value is, setting by setting: (input ligand: FMN 200 uM) 825 nM; (input ligand: arginine 13.2 mM) 156 nM; (input ligand: none) 155 nM; under setting [1], 163 nM; under setting [2], 116 nM.
For “GGAUAGGACAGAGGAUAUGGUAGUGAUGUUACCAAACUGGUUACUCUUGUCAGAAAACUGGCAUCUCUAGAAGGCUGUCCUAUCG [KL-XFMN-B9]”, the “apparent KD of K4 kissing-loop reporter” value is, setting by setting: (input ligand: FMN 200 uM) 389 nM; (input ligand: arginine 13.2 mM) 156 nM; (input ligand: none) 149 nM; under setting [1], 144 nM; under setting [2], 168 nM.
Regarding “GGAUAGGACAGAGGAUAUGGUAGUGAUGUUACCAAACUGGUUAUCAAUGUUAGAAAAUUGACAAAUCCAGAAGGCUGUCCUAUCG [KL-XFMN-B14]”, the “apparent KD of K4 kissing-loop reporter” value (input ligand: FMN 200 uM) was 198 nM; the “apparent KD of K4 kissing-loop reporter” value (input ligand: arginine 13.2 mM) worked out at 60.7 nM; the “apparent KD of K4 kissing-loop reporter” value (input ligand: none) was 66.4 nM; the “apparent KD of K4 kissing-loop reporter” value under setting [1] amounted to 54.8 nM; the “apparent KD of K4 kissing-loop reporter” value under setting [2] was 62 nM.
On the same counts, the results for “GGAUAGGACAGAGGAUAUGGUGCUAGGCAAGAAUAACUUGUCUAGCAAUCCAUGAGGAGUGAUGUUCCAGAAGGCUGUCCUAUCG [FmnBX 3 - #SwitchBubble #StraticStem #DoubleMagnetSystem]” are 440 nM, 132 nM, 137 nM, 136 nM and 118 nM.
For the sequence “GGAUAGGACAUAGGAUAUGGUAGUGAUGUUACCAAACUGGUUAAACAUGUCAGAAAACUGGCAUGACCAGAAGGGUGUCCUAUCG [FmnBX 27 U11+G75]”, the “apparent KD of K4 kissing-loop reporter” value (input ligand: FMN 200 uM) was determined as 73 nM; the “apparent KD of K4 kissing-loop reporter” value (input ligand: arginine 13.2 mM) was determined as 54.2 nM; the “apparent KD of K4 kissing-loop reporter” value (input ligand: none) is 61.8 nM; the “apparent KD of K4 kissing-loop reporter” value under setting [1] is 45.9 nM; the “apparent KD of K4 kissing-loop reporter” value under setting [2] was determined as 64.3 nM.
Consider “GGAUAGGAUAGAGGAUAUGGAUUAGGCAAGAAUAACUUGUCAUGUAAAUCCAUGAGGAGUGAUGUUCCAGAAGGCUGUCCUAUCG [MatMod 7 - Jieux - Exclusion - FMN B]”, for which the “apparent KD of K4 kissing-loop reporter” value (input ligand: FMN 200 uM) is 349 nM; the “apparent KD of K4 kissing-loop reporter” value (input ligand: arginine 13.2 mM) stood at 116 nM; the “apparent KD of K4 kissing-loop reporter” value (input ligand: none) is 114 nM; the “apparent KD of K4 kissing-loop reporter” value under setting [1] amounted to 112 nM; the “apparent KD of K4 kissing-loop reporter” value under setting [2] was found to be 90.7 nM.
Consider “GGAUAGGAUAGAGGAUAUGGGCUAGGCAAGAAUAACUUGUCUAGUAAAUCCAUGAGGAGUGAUGUUCCAGAAGGCUGUCCUAUCG [MatMod 2 - Jieux - Exclusion - FMN B]”, for which the “apparent KD of K4 kissing-loop reporter” value is, setting by setting: (input ligand: FMN 200 uM) 286 nM; (input ligand: arginine 13.2 mM) 166 nM; (input ligand: none) 324 nM; under setting [1], 182 nM; under setting [2], 247 nM.
On to “GGAUAGGAUAGAGGAUAUGGGCUAGGCAAGGAUAACUUGUCUAGCAAAUCCAUGAGGAGUGAUGUUCCAGAAGGCUGUCCUAUCG [MatMod 1 - Jieux - Exclusion - FMN B]”, for which the “apparent KD of K4 kissing-loop reporter” value (input ligand: FMN 200 uM) came out at 733 nM; the “apparent KD of K4 kissing-loop reporter” value (input ligand: arginine 13.2 mM) is 160 nM; the “apparent KD of K4 kissing-loop reporter” value (input ligand: none) was 162 nM; the “apparent KD of K4 kissing-loop reporter” value under setting [1] was 148 nM; the “apparent KD of K4 kissing-loop reporter” value under setting [2] is 158 nM.
In the same order, the values of “GGAUAGGAUAGAGGAUAUGGUAUAUGCAAGAAUAACUUAUCGUGUAAAUCCAUAGGGAGUGAUGUUCCAGAAGGCUGUCCUAUCG [MatMod 11 - Jieux - Exclusion - FMN B]” are 921 nM, 244 nM, 308 nM, 324 nM and 229 nM.
